How the values were obtained:
[1] = biological target: SH1 membrane-associated protein VP12 (haloarchaeal virus SH1); assay: cryo-EM structure; purified SH1 virions with and without spikes, data merged; icosahedral and block-based/localised reconstruction of the capsid, 3.8 Å; 20 mM Tris-HCl pH 7.2, 1 M NaCl, 10 mM MnCl2
[2] = biological target: SH1 penton protein VP9 (haloarchaeal virus SH1); assay: cryo-EM structure; asymmetric (C1) localised reconstruction of the whole 5-fold vertex of spike-containing virions, overall 7.2 Å

“SH1 membrane-associated protein VP12 (natural protein)” gave a stoichiometry N [1] of 5.

With “SH1 penton protein VP9 (natural protein)” the stoichiometry N [2] was 5.

— article PMC6441041
